Among the targets are HLA A0301 (human); HLA A1101 (human); HLA A3101 (human); HLA A3301 (human); HLA A6801 (human); HLA A0101 (human); HLA A2902 (human); HLA A3002 (human); HLA A2601 (human); HLA A0201 (human); HLA A0202 (human); HLA A0203 (human); HLA A0206 (human); HLA A6802 (human).
Assay in all cases: 125I-probe competition, purified HLA
Where [1] appears, read: remark: other sources report otherwise.

Where two headings read alike, the source gives them in different places.

In general, IC50 refers to the concentration at which inhibition is half-maximal. The low end stands for higher potency, the high end for lower potency.

B1: HPV16.E1.406 (peptide)
peptide: ATMCRHYKR
modifications: not checked
As to B1, the IC50 was 90 nM with HLA A0301 (human); 14 nM with HLA A1101 (human); 10 nM in the experiment with HLA A3101 (human); 17 nM with HLA A3301 (human); 35 nM in the experiment with HLA A6801 (human).

B2: HPV31.E1.349 (peptide)
peptide: VMDDSEIAY
modifications: not checked
B2: the values for the IC50 in the experiment with HLA A0101 (human), with HLA A2902 (human) and with HLA A3002 (human) were 18 nM, 95 nM and 2550 nM, respectively.

B3: HPV18.E6.89 (peptide)
peptide: TLEKLTNTGLY
modifications: not checked
As to B3, the IC50 in the experiment with HLA A2601 (human) (setting [1]) came out at 265 nM; in the experiment with HLA A3002 (human) (setting [1]) it was 476 nM.

B4: HPV16.E1.274 (peptide)
peptide: VVLLLVRYK
modifications: not checked
Regarding B4, the IC50 in the experiment with HLA A0301 (human) came to 6.3 nM; with HLA A1101 (human), 4.1 nM; with HLA A3101 (human), 0.1 nM; in the experiment with HLA A3301 (human), 6.1 nM; with HLA A6801 (human), 76 nM.

B5: HPV16.E5.66 (peptide)
peptide: FVYIPLFLI
modifications: not checked
For the molecule B5, the IC50 is 206 nM with HLA A0201 (human); 323 nM with HLA A0202 (human); 63 nM in the experiment with HLA A0203 (human); 59 nM with HLA A0206 (human); 251 nM in the experiment with HLA A6802 (human).

B6: HPV45.E7.20 (peptide)
peptide: ELDPVDLLCY
modifications: not checked
B6: the values for the IC50 with HLA A0101 (human), with HLA A2601 (human) and with HLA A2902 (human) were 26 nM, 2110 nM and 4290 nM, respectively.

B7: HPV16.E2.151 (peptide)
peptide: QVDYYGLYY
modifications: not checked
Turning to B7, the IC50 with HLA A0101 (human) amounted to 2.7 nM; with HLA A2601 (human) it was 251 nM; with HLA A2902 (human), 25 nM; in the experiment with HLA A3002 (human) it was 160 nM.

B8: HPV45.E2.322 (peptide)
peptide: STWHWTGCNK
modifications: not checked
Take B8: the IC50 amounted to 14 nM with HLA A0301 (human); 2.8 nM in the experiment with HLA A1101 (human); 54 nM with HLA A3101 (human); 428 nM with HLA A3301 (human); 18 nM in the experiment with HLA A6801 (human).

B9: HPV45.E2.17 (peptide)
peptide: LQDKILDHY
modifications: not checked
B9: the IC50 stood at 32 nM with HLA A0101 (human), 5000 nM in the experiment with HLA A2601 (human) and 836 nM in the experiment with HLA A3002 (human).

B10: HPV16.E7.85.V9 (peptide)
peptide: GTLGIVCPV
modifications: not checked
In the case of B10, the IC50 worked out at 20 nM with HLA A0201 (human); 49 nM in the experiment with HLA A0202 (human); 68 nM with HLA A0203 (human); 33 nM with HLA A0206 (human); 32 nM with HLA A6802 (human).

B11: HPV31.E2.131 (peptide)
peptide: YTNWKFIYL
modifications: not checked
For the molecule B11, the IC50 was determined as 69 nM in the experiment with HLA A0201 (human); 14 nM with HLA A0202 (human); 31 nM with HLA A0203 (human); 84 nM with HLA A0206 (human); 146 nM with HLA A6802 (human).

B12: HPV45.E6.95 (peptide)
peptide: NTELYNLLI
modifications: not checked
In the case of B12, the IC50 with HLA A0101 (human) is 32 nM; with HLA A2601 (human) it was 17300 nM.

B13: HPV31.E1.253 (peptide)
peptide: MVMLMLVRFK
modifications: not checked
Consider B13, for which the IC50 with HLA A0301 (human) came out at 10 nM; with HLA A3301 (human) it was 20 nM; in the experiment with HLA A6801 (human), 10 nM.

B14: HPV45.E2.137 (peptide)
peptide: YVVWDSIYYI
modifications: not checked
Take B14: the IC50 with HLA A0201 (human) was determined as 77 nM; with HLA A0202 (human) it was 27 nM; in the experiment with HLA A0203 (human), 248 nM; in the experiment with HLA A0206 (human) it was 20 nM; with HLA A6802 (human), 30 nM.

B15: HPV31.E2.205 (peptide)
peptide: ISFAGIVTK
modifications: not checked
As to B15, the IC50 came to 17 nM in the experiment with HLA A0301 (human), 1.6 nM in the experiment with HLA A1101 (human), 115 nM with HLA A3101 (human) and 4370 nM with HLA A3301 (human).

B16: HPV18.E5.51 (peptide)
peptide: TVYVFCFLL
modifications: not checked
As to B16, the IC50 with HLA A0201 (human) was found to be 175 nM; with HLA A0202 (human) it was 587 nM; with HLA A0203 (human), 769 nM; in the experiment with HLA A0206 (human), 26 nM; with HLA A6802 (human) it was 41 nM.

B17: HPV45.E2.332 (peptide)
peptide: NTGILTVTY
modifications: not checked
Consider B17, for which the IC50 with HLA A0101 (human) came out at 337 nM; with HLA A2601 (human), 3150 nM; in the experiment with HLA A2902 (human), 1400 nM; with HLA A3002 (human) it was 8720 nM.

B18: HPV45.E1.252 (peptide)
peptide: TLYAHIQCL
modifications: not checked
Turning to B18, the IC50 with HLA A0201 (human) is 34 nM; with HLA A0202 (human), 4.9 nM; in the experiment with HLA A0203 (human), 6.2 nM; with HLA A0206 (human), 417 nM; with HLA A6802 (human) it was 1610 nM.

B19: HPV31.E6.72 (peptide)
peptide: KVSEFRWYRY
modifications: not checked
Turning to B19, the IC50 in the experiment with HLA A0301 (human) was 213 nM; with HLA A1101 (human) it was 25 nM; with HLA A3101 (human), 3 nM; with HLA A3301 (human) it was 338 nM; with HLA A6801 (human), 192 nM.

B20: HPV16.E2.23 (peptide)
peptide: STDLRDHIDY
modifications: not checked
Turning to B20, the IC50 with HLA A0101 (human) was found to be 113 nM; with HLA A2601 (human) it was 758 nM; with HLA A3002 (human) it was 17 nM.

B21: HPV16.E1.497 (peptide)
peptide: SVICFVNSK
modifications: not checked
As for B21, the IC50 with HLA A0301 (human) was 109 nM; with HLA A1101 (human), 2.2 nM; with HLA A3101 (human), 25 nM; in the experiment with HLA A3301 (human) it was 51 nM; with HLA A6801 (human), 5.4 nM.

B22: HPV31.E5.15 (peptide)
peptide: FLLCFCVLL
modifications: not checked
Take B22: the IC50 was 9.6 nM with HLA A0201 (human); 13 nM with HLA A0202 (human); 34 nM in the experiment with HLA A0203 (human); 2.6 nM in the experiment with HLA A0206 (human); 237 nM with HLA A6802 (human).

B23: HPV31.E6.15 (peptide)
peptide: LSSALEIPY
modifications: not checked
As for B23, the IC50 with HLA A0101 (human) worked out at 35 nM; in the experiment with HLA A2601 (human), 4110 nM; in the experiment with HLA A2902 (human), 261 nM; with HLA A3002 (human), 175 nM.

B24: HPV31.E6.46 (peptide)
peptide: AFTDLTIVY
modifications: not checked
Turning to B24, the IC50 with HLA A0101 (human) was 31 nM; with HLA A2902 (human), 36 nM; with HLA A3002 (human) it was 71 nM.

B25: HPV18/31.E1.11 (peptide)
peptide: GTGCNGWFY
modifications: not checked
With B25, the IC50 was found to be 136 nM with HLA A0101 (human), 3080 nM with HLA A2601 (human), 116 nM with HLA A2902 (human) and 9.1 nM with HLA A3002 (human).

B26: HPV16.E1.259 (peptide)
peptide: CLYLHIQSL
modifications: not checked
For the molecule B26, the IC50 with HLA A0201 (human) stood at 73 nM; with HLA A0202 (human), 45 nM; with HLA A0203 (human), 21 nM; with HLA A0206 (human), 100 nM; with HLA A6802 (human), 1780 nM.

B27: HPV45.E1.399 (peptide)
peptide: AVMCRHYKR
modifications: not checked
Regarding B27, the IC50 with HLA A0301 (human) worked out at 311 nM; with HLA A1101 (human) it was 38 nM; in the experiment with HLA A3101 (human), 52 nM; with HLA A3301 (human), 24 nM; with HLA A6801 (human), 29 nM.

B28: HPV31.E1.294 (peptide)
peptide: STAAALYWYR
modifications: not checked
As to B28, the IC50 came out at 198 nM with HLA A0301 (human); 10 nM in the experiment with HLA A1101 (human); 5.6 nM in the experiment with HLA A3101 (human); 47 nM in the experiment with HLA A3301 (human); 12 nM with HLA A6801 (human).

B29: HPV18.E2.136 (peptide)
peptide: VAWDSVYYM
modifications: not checked
For B29, the IC50 with HLA A0201 (human) is 172 nM; in the experiment with HLA A0202 (human) it was 603 nM; with HLA A0203 (human), 1330 nM; in the experiment with HLA A0206 (human), 790 nM; with HLA A6802 (human), 5150 nM.

B30: HPV16.E1.314 (peptide)
peptide: STAAALYWYK
modifications: not checked
Take B30: the IC50 turned out to be 5 nM with HLA A0301 (human); 2 nM in the experiment with HLA A1101 (human); 35 nM with HLA A3101 (human); 128 nM with HLA A3301 (human); 6 nM with HLA A6801 (human).

B31: HPV18.E2.154 (peptide)
peptide: ATCVSHRGLY
modifications: not checked
In the case of B31, the IC50 in the experiment with HLA A0101 (human) is 421 nM; with HLA A2601 (human), 646 nM; with HLA A2902 (human), 4210 nM; with HLA A3002 (human), 28 nM.

B32: HPV31.E5.66 (peptide)
peptide: FIYIPLFVI
modifications: not checked
For the molecule B32, the IC50 with HLA A0201 (human) is 26 nM; with HLA A0202 (human), 97 nM; with HLA A0203 (human) it was 47 nM; with HLA A0206 (human), 8.1 nM; with HLA A6802 (human), 157 nM.

B33: HPV16/31.E1.357 (peptide)
peptide: LSQMVQWAY
modifications: not checked
B33: the IC50 amounted to 21 nM in the experiment with HLA A0101 (human), 6450 nM with HLA A2601 (human), 122 nM with HLA A2902 (human) and 0.93 nM with HLA A3002 (human).

The record behind these values is patent publication US20100272750A1.
